Measurements reported in article PMC7560200 (The EMBO Journal, 2020).

Target: GST-CENP-C (1-727) (human, UniProt Q03188 1-727)
Test: pull-down

GST-CENP-C (1-727), sequence (Q03188 1-727): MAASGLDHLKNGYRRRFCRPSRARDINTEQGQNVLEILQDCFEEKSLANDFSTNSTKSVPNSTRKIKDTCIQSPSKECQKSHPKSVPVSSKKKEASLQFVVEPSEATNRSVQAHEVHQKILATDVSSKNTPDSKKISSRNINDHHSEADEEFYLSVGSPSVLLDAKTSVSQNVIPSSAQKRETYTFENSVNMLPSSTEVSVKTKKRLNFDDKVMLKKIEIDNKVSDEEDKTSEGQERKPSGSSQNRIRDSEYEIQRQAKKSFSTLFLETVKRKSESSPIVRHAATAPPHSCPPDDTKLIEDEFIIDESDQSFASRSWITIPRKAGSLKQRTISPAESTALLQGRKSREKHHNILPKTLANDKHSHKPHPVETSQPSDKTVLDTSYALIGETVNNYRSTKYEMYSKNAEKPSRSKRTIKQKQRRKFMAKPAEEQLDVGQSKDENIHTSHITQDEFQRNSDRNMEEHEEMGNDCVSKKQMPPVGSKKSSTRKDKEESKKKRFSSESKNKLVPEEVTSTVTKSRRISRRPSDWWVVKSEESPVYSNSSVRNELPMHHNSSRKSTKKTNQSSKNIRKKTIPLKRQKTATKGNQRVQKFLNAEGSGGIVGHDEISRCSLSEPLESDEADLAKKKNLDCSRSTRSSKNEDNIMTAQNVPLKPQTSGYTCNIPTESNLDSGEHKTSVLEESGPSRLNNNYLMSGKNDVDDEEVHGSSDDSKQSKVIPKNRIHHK

B1: His-CENP-B (161–599) (domain or fragment, human, UniProt P07199 161-599, looked up)
chain: PSEGSGGSTTGWRAREEQPPSVAEGYASQDVFSATETSLWYDFLPDQAAGLCGGDGRPRQATQRLSVLLCANADGSEKLPPLVAGKSAKPRAGQAGLPCDYTANSKGGVTTQALAKYLKALDTRMAAESRRVLLLAGRLAAQSLDTSGLRHVQLAFFPPGTVHPLERGVVQQVKGHYRQAMLLKAMAALEGQDPSGLQLGLTEALHFVAAAWQAVEPSDIAACFREAGFGGGPNATITTSLKSEGEEEEEEEEEEEEEEGEGEEEEEEGEEEEEEGGEGEELGEEEEVEEEGDVDSDEEEEEDEESSSEGLEAEDWAQGVVEAGGSFGAYGAQEEAQCPTLHFLEGGEDSDSDSEEEDDEEEDDEDEDDDDDEEDGDEVPVPSFGEAMAYFAMVKRYLTSFPIDDRVQSHILHLEHDLVHVTRKNHARQAGVRGLGHQS
B1: binds.
